# From patent US20200247894A1 (Regeneron, published 2020)
# T1: Human IL2Rγ extracellular domain expressed with a C-terminal myc-myc-hexahistidine tag (human)
# T1 construct: also called hIL-2Rg-MMH; hIL-2RG-MMH
# T1 chain: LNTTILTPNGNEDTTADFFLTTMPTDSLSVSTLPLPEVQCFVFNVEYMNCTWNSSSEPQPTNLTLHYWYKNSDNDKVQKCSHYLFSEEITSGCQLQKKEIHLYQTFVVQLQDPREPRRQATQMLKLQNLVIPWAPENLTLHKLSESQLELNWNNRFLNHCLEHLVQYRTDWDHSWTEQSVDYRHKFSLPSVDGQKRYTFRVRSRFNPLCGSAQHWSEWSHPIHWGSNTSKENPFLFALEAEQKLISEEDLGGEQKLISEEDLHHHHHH
# T2: Macaca fascicularis IL2Rγ extracellular domain expressed with a C-terminal myc-myc-hexahistidine tag (Macaca fascicularis)
# T2 construct: also called mfIL-2Rg-MMH; mfIL-2RG-MMH
# T2 chain: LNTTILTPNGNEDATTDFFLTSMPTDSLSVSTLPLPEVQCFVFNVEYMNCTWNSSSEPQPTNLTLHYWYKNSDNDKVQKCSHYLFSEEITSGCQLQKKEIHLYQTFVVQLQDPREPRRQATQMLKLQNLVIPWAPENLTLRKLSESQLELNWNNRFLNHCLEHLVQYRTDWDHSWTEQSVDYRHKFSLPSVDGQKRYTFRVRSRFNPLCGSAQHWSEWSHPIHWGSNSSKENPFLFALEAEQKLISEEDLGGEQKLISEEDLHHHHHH
# Experiments:
# [1] = target: T1, Human IL2Rγ extracellular domain …; assay: SPR, captured mAb, 25C, dissociation pH 7.4
# Procedure: (§1) The dissociation rate constant (kd) for binding of IL-2Rγ reagents to purified anti-IL2Rγ monoclonal antibodies was determined using a real-time surface plasmon resonance based Biacore 4000 biosensor platform. […] The CM5 Biacore sensor surface derivatized by amine coupling with monoclonal mouse anti-human Fc antibody (GE, Catalog # BR-1008-39) was used to capture anti-IL2Rγ monoclonal antibodies expressed with human IgG4 Fc. All the IL2Rγ reagents were expressed with a C-terminal myc-myc-hexahistidine tag (subsequently referred to with a -MMH suffix). […] The dissociation of bound IL-2Rg-MMH was performed in PBS-T-pH7.4 or PBS-T-pH6.0 running buffers for 6 minutes.
# (§2) Dissociation rate constants (kd) in two running buffers were determined by fitting the real-time binding sensorgrams to a 1:1 binding model using Scrubber 2.0c curve-fitting software. Values of dissociation rate for […] mAb binding to hIL-2RG-MMH and mfIL-2RG-MMH at 25° C. and 37° C. in PBS-T-pH7.4 and PBS-T-pH6.0 is shown in Table 2-1 through Table 2-8.
# [2] = target: T2, Macaca fascicularis IL2Rγ extracellular …; assay: SPR, captured mAb, 25C, dissociation pH 7.4
# Procedure: as §1, §2
# [3] = target: T1, Human IL2Rγ extracellular domain …; assay: SPR, captured mAb, 37C, dissociation pH 7.4
# Procedure: as §1, §2
# [4] = target: T1, Human IL2Rγ extracellular domain …; assay: SPR, captured mAb, 25C, dissociation pH 6.0
# Procedure: as §1, §2
# [5] = target: T2, Macaca fascicularis IL2Rγ extracellular …; assay: SPR, captured mAb, 25C, dissociation pH 6.0
# Procedure: as §1, §2
# [6] = target: T1, Human IL2Rγ extracellular domain …; assay: SPR, captured mAb, 37C, dissociation pH 6.0
# Procedure: as §1, §2
100 nM Ag Bound (RU) [1],koff [1],t1/2 [1],100 nM Ag Bound (RU) [2],koff [2],t1/2 [2],100 nM Ag Bound (RU) [3],koff [3],t1/2 [3],100 nM Ag Bound (RU) [4],koff [4],t1/2 [4],100 nM Ag Bound (RU) [5],koff [5],t1/2 [5],100 nM Ag Bound (RU) [6],koff [6],t1/2 [6],Binder
72 RU,0.000192 s⁻¹,60 min,71 RU,0.000203 s⁻¹,57 min,90 RU,0.000661 s⁻¹,17 min,64 RU,0.000636 s⁻¹,18 min,60 RU,0.000668 s⁻¹,17 min,82 RU,0.00286 s⁻¹,4 min,"H4H12890P (antibody, human IgG4 S228P, kappa, V domains shown, anti-IL2Rgamma mAb expressed with human IgG4 Fc) VH: EVQLVESGGGLVQPGGSLRLSCAASGFTFNNYAMHWVRQAPGKGLEYVSSISSSGGSTYYEDSVKGRFTISRDNSKNTLYLQMGSLRAEDMAVYYCARSFYGSGTYYDTFDMWGQGTMVTVSS VL: DIQMTQSPSSLSASIGDRVTITCRASQSISRYLNWYQQKPGKAPKLLIYAASSLQSGVPSRFSASGSGTDFTLTISSLQPEDFATYYCQQSYSTPFTFGQGTKLEIKR"
118 RU,0.000174 s⁻¹,66 min,117 RU,0.000167 s⁻¹,69 min,158 RU,0.000668 s⁻¹,17 min,96 RU,0.000568 s⁻¹,20 min,95 RU,0.000703 s⁻¹,16 min,125 RU,0.00219 s⁻¹,5 min,"H4H12899P (antibody, human IgG4 S228P, kappa, V domains shown, anti-IL2Rgamma mAb expressed with human IgG4 Fc) VH: QVQLVESGGDLVKPGGSLRLSCATSGFTFSDFYMTWIRQAPGKGLEWISYISNSGSIVKYADSVKGRFTISRDNAKNSLYLQMNSLRAEDTAIYYCARFYGDRWGQGTLVTVSS VL: DIQLTQSPSFLSASVGDRVTITCWASQGISTFLAWYQQKPGKAPKLLIYAASTLQSGVPSRFSGSGSGTDFTLTISSLQPEDFATYHCQQLNNYPWTFGQGTKVEIKR"
130 RU,0.000175 s⁻¹,66 min,129 RU,0.000175 s⁻¹,66 min,162 RU,0.000711 s⁻¹,16 min,101 RU,0.000692 s⁻¹,17 min,100 RU,0.000671 s⁻¹,17 min,133 RU,0.00271 s⁻¹,4 min,"H4H12900P (antibody, human IgG4 S228P, kappa, V domains shown, anti-IL2Rgamma mAb expressed with human IgG4 Fc) VH: QVQLVESGGGLVKPGGSLRLSCEASGFTFNDFYMTWIRQAPGKGLEWIAYISKSGDKMRYADSVKGRFSTSRDNAKNSLSLQMNSLRAEDTAVYYCARFYGDIWGQGTLVTVSS VL: DIQLTQSPSFLSASVGDRVTITCWASQDISSFLVWYQQKPGKAPNLLIYAASALQSGVPSRFSGSGSGTEFTLTISSLQPEDFASYYCEQLNNYPWTFGQGTKVEIKR"
72 RU,0.000165 s⁻¹,70 min,80 RU,0.000222 s⁻¹,52 min,98 RU,0.000532 s⁻¹,22 min,66 RU,0.000469 s⁻¹,25 min,69 RU,0.000497 s⁻¹,23 min,95 RU,0.00158 s⁻¹,7 min,"H4H13541P (antibody, human IgG4 S228P, kappa, V domains shown, anti-IL2Rgamma mAb expressed with human IgG4 Fc) VH: EVQLVESGGGVVRPGGSLRLSCAASGFIFDDYDMSWVRQPPGRGLEWVSGIDWFGGTRGYADSMKGRFTISRDNAKNSLYLQMNSLRVEDTAFYYCARGGAIVGAVTPFDYWGQGTLVTVSS VL: DIQMTQSPSSLSASVGNRVTLSCRASQSINTYLSWYQQRPGKAPKLLIYAASSLQSGVPSRFSGSGAGTDFTLTISSLQPEDFATYYCQQSYSAPLTFGGGTKVEIKR"
31 RU,0.000177 s⁻¹,65 min,37 RU,0.000208 s⁻¹,56 min,54 RU,0.000671 s⁻¹,17 min,34 RU,0.000505 s⁻¹,23 min,34 RU,0.000488 s⁻¹,24 min,52 RU,0.00163 s⁻¹,7 min,"H4H12908P (antibody, human IgG4 S228P, kappa, V domains shown, anti-IL2Rgamma mAb expressed with human IgG4 Fc) VH: EVQLVESGGRLVQPGGSLRLSCEASGFTFSNYGMTWVRQAPGKGLEWVSVISGSDNRKYYAESVKGRFTISRDNSKNTLYLQMNSLRAEDTAVYYCAKLGYSRSSKDFYYGMDVWGQGTTVTVSS VL: not shown"

# The remaining lines, values behind:
Binder,100 nM Ag Bound (RU) [1],koff [1],t1/2 [1],100 nM Ag Bound (RU) [2],koff [2],t1/2 [2],100 nM Ag Bound (RU) [3],koff [3],t1/2 [3],100 nM Ag Bound (RU) [4],koff [4],t1/2 [4],100 nM Ag Bound (RU) [5],koff [5],t1/2 [5],100 nM Ag Bound (RU) [6],koff [6],t1/2 [6]
"H4H12886P (antibody, human IgG4 S228P, kappa, V domains shown, anti-IL2Rgamma mAb expressed with human IgG4 Fc) VH: EVQLVESGGGLVKPGGSLRLSCAASGFTFSTAWMSWVRQSPGRGLEWVGRMKSKTDGGTTFYAAPVKGRFTISRDDSKNTLYLQMNSLKTEDTAVYYCTTGLVPAFYKYYGVDVWGQGTTVTVSS VL: DIQMTQSPSSLSASVGDRITITCQASQDITNYLNWYQQKPGKAPNLLIYDASNLVTGVPSRFSGSGSGTDFTFTILSLQPEDIATYYCQQYDSLLTFGPGTKVDIKR",113 RU,0.000155 s⁻¹,75 min,113 RU,0.000175 s⁻¹,66 min,146 RU,0.000519 s⁻¹,22 min,84 RU,0.000634 s⁻¹,18 min,83 RU,0.000682 s⁻¹,17 min,115 RU,0.00216 s⁻¹,5 min
"H4H12884P (antibody, human IgG4 S228P, kappa, V domains shown, anti-IL2Rgamma mAb expressed with human IgG4 Fc) VH: QVQLQESGPGLVKPSQTLSLTCTVSGGSISSGGYYWSWIRQHPGKGLEWIGFIYYSGKTYYNPSLKSRLTISVDTSKSQFSLKLRSVTAADTAVYYCARLGYTNSAGWFDPWGQGTLVTVSS VL: DIQMTQSPSSLSASVGDRVTITCRASQSISSYLNWYQQKPGKAPNLLIYAASSLQSGVPSRFSGSGSGTDFTLTISSLQPEDLATYYCQQSYTTPFTFGPGTKVDIKR",161 RU,0.00064 s⁻¹,18 min,160 RU,0.000516 s⁻¹,22 min,171 RU,0.00151 s⁻¹,8 min,135 RU,0.00199 s⁻¹,6 min,133 RU,0.00159 s⁻¹,7 min,136 RU,0.00379 s⁻¹,3 min
"H4H12889P (antibody, human IgG4 S228P, kappa, V domains shown, anti-IL2Rgamma mAb expressed with human IgG4 Fc; also called REGN7257) VH: EVQLVESGGGLVQPGGSLRLSCAASGFIFSSYEMHWVRQAPGKGLEWISYISSSGTTIYYADSVKGRFTISRDNAKNSLYLHMNSLRAEDTAVYYCTRARITGTFDVFDIWGQGTMVTVSS VL: DIQMTQSPSSLSASVGDRVTITCRASQSISSYLNWYQQKPGKAPKLLIFAASNLQSGVPSRFSGSRSGTDFTLTISSLQPEDFATYYCQQNYNIPYTFGQGTKLEIKR",118 RU,0.000138 s⁻¹,84 min,123 RU,0.000157 s⁻¹,74 min,147 RU,0.000636 s⁻¹,18 min,130 RU,0.000437 s⁻¹,26 min,126 RU,0.000434 s⁻¹,27 min,153 RU,0.00188 s⁻¹,6 min
